From patent US20110274702A1 (INSTITUTE FOR RESEARCH IN BIOMEDICINE, published 2011)

B1: FI28 variant 1 (antibody, V domains shown)
VH: EVQLVESGGGAVQPGESLKLSCAASGFTFSNYGMHWVRQAPGKGLEWVAVISYDGSNKYYADSVKGRFTISRDNSKDTLYLQMNSLRAEDTALFYCAKERPLRLLRYFDWLSGGANDYWGQGTLVTVSS
VL: DIVMTQSPDSLAVSLGERATINCKSSQSVLYSSNNKNYLAWYQQKPGQPPKLLIDWASTRESGVPDRFSGSGSGTDFTLTISNLQVEDVAVYYCQQYYRSPSFGQGTKLEIK
B2: FI6 variant 2 (antibody, V domains shown)
VH: QVQLVQSGGGVVQPGRSLRLSCVASGFTFSTYAMHWVRQAPGRGLEWVAVISYDGNYKYYADSVKGRFSISRDNSNNTLHLEMNTLRTEDTALYYCAKDSQLRSLLYFEWLSQGYFDPWGQGTLVTVTS
VL: DIQMTQSPDSLAVSLGARATINCKSSQSVTFNYKNYLAWYQQKPGQPPKVLIYWASARESGVPDRFSGSGSGTDFTLTISSLQAEDVAVYYCQQHYRTPPTFGQGTKVEIK
B3: FI6 variant 3 (antibody, V domains shown)
VH: QVQLVESGGGVVQPGRSLRLSCAASGFTFSTYAMHWVRQAPGKGLEWVAVISYDANYKYYADSVKGRFTISRDNSKNTLYLQMNSLRAEDTAVYYCAKDSQLRSLLYFEWLSQGYFDYWGQGTLVTVSS
VL: not shown

Columns and labels:
Test in all cases: cell-based or functional assay
[1] = target: H5N1 A/VN/1203/04 HA on pseudotyped virus (influenza A virus H5N1 A/VN/1203/04)
HA A/VN/1194/04 (H5) = HA A/VN/1194/04 (H5) (influenza A virus H5 A/VN/1194/04)
[2] = target: H7N1 A/ck/FPV/Ro/34 HA on pseudotyped virus (influenza A virus H7N1 …, UniProt P03459 19-563)

Binder	Neutralization of HA-pseudotypes (IC90, µg/ml) [1] [µg/mL]	Neutralization H5 A/VN/1194/04 pseudovirus, IC50 (HA A/VN/1194/04 (H5)) [mg/L]	Neutralization H7 A/ck/FPV Rostock/34 pseudovirus, IC50 [2] [mg/L]
B1	0.02		
B2		0.0054	0.02
B3		0.0035	0.0274
